From publication PMC3386970

How the values were obtained:
Assay in all cases: SPR; BIAcore 2000. Aaa, N-Aaa and C-Aaa amine-coupled at low density to a C1 chip (149, 96 and 72 pg/mm^2, nearly equimolar). Fg, Fn or Vn injected as analytes at 50 µl/min, 25°C. KD from the kinetics of the initial phases (binding biphasic at higher concentrations).
[1] = target: C-terminal CHAP domain of Aaa (6 x His-C-Aaa) (Staphylococcus aureus 4074)
[2] = target: N-terminal LysM domain of Aaa (6 x His-N-Aaa) (Staphylococcus aureus 4074)
Sequence of N-terminal LysM domain of Aaa (6 x His-N-Aaa) (Staphylococcus aureus 4074) (P0C1U7 26-214 limits assumed): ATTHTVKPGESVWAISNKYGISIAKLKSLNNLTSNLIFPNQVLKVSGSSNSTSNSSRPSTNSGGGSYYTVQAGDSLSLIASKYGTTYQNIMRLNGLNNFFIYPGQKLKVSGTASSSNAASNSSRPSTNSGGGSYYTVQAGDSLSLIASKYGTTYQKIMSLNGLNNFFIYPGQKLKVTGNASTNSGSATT

[3] = target: autolysin/adhesin Aaa from Staphylococcus aureus (6 x His-Aaa) (Staphylococcus aureus) (UniProt Q2G0U9)

Sequence of C-terminal CHAP domain of Aaa (6 x His-C-Aaa) (Staphylococcus aureus 4074) (P0C1U7 215-334 limits assumed): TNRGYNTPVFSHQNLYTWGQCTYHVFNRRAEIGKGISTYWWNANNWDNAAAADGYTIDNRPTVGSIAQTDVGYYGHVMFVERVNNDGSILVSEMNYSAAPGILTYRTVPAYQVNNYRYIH

Row | Substance | Kd [1] [nM] | relative stoichiometry of binding (Aaa : N-Aaa : C-Aaa) [1] | Kd [2] [nM] | relative stoichiometry of binding (Aaa : N-Aaa : C-Aaa) [2] | Kd [3] [nM] | relative stoichiometry of binding (Aaa : N-Aaa : C-Aaa) [3]
1 | fibrinogen (from UniProt P02671 36-866; P02675 45-491; P02679 27-453) (complex) | 0.74 | 1 | 0.41 | 2 | 0.76 | 4
2 | fibronectin (from UniProt P02751 32-2477) (natural protein) | 6.8 | 1 | 5.1 | 1 | 6 | 2
3 | vitronectin (natural protein) | 20 | 1 | 18 | 1 | 18 | 2
